In patent US20240034801A1 (published 2024):

B1: Anti-4-1BB mAb (antibody, V domains shown)
VH: QVQLVQSGAEVKKPGSSVKVSCKASGYTFTSYWINWVRQAPGQGLEWMGNIYPSDSYTNYNQKFKDRVTITADKSTSTAYMELSSLRSEDTAVYYCARLYYGSSPFDYWGQGTTVTVSS
VL: DIQMTQSPSSLSASVGDRVTITCRASQDISNYLNWYQQKPGKVPKLLIYHTSRLHSGVPSRFSGSGSGTDFTLTISSLQPEDVATYYCQQGHTLPRTFGGGTKVEIK
B2: Anti-PD-L1 mAb (antibody, V domains shown)
VH: EVQLVQSGAEVKKPGSSVKVSCKASGFNIEDTYIHWVRQAPGQGLEWMGRIDPANANTKYDPKFQGRVTITADTSTNTAYMELSSLRSEDTAVYYCGRGLGAWFAYWGQGTLVTVSS
VL: DIQMTQSPSSLSASVGDRVTITCKASQDVHTAVAWIQQKPGKSPKLLIYSASNRYTGVPSRFSGSGSGTDFTFTISSLQPEDIATYYCQQHYITPLTFGQGTKLEIK
B3: anti-PD-L1/anti-4-1BB heterodimeric antibody BH3120h (bispecific antibody)
heavy 1: not shown
light 1: DIQMTQSPSSLSASVGDRVTITCKASQDVHTAVAWIQQKPGKSPKLLIYSASNRYTGVPSRFSGSGSGTDFTFTISSLQPEDIATYYCQQHYITPLTFGQGTKLEIKRTVAAPSVFIFPPSDEQLKSGTASVVCLLNNFYPREAKVQWKVDNALQSGNSQESVTEQDSKDSTYSLSSTLTLSKADYEKHKVYACEVTHQGLSSPVTKSFNRGEC
heavy 2: QVQLVQSGAEVKKPGSSVKVSCKASGYTFTSYWINWVRQAPGQGLEWMGNIYPSDSYTNYNQKFKDRVTITADKSTSTAYMELSSLRSEDTAVYYCARLYYGSSPFDYWGQGTTVTVSSASTKGPSVFPLAPSSKSTSGGTAALGCLVKDYFPEPVTVSWNSGALTSGVHTFPAVLQSSGLYSLSSVVTVPSSSLGTQTYICNVNHKPSNTKVDKKVEPKSCDKTHTCPPCPAPELLGGPSVFLFPPKPKDTLMISRTPEVTCVVVDVSHEDPEVKFNWYVDGVEVHNAKTKPREEQYASTYRVVSVLTVLHQDWLNGKEYKCKVSNKALPAPIEKTISKAKGQPREPQVYTEPPSRDELTKNQVSLTCLVKGFYPSDIAVEWESNGQPENNYKTTPPVLDSDGSFFLLSVLTVDKSRWQQGNVFSCSVMHEALHNHYTQKSLSLSPGK
light 2: not shown

Key:
[1] = target: recombinant human 4-1BB (Sino Biological Inc., catalog number 10041-H08H) (human, UniProt Q07011 24-186); test: ELISA; Fig. 8B
recombinant human 4-1BB (Sino Biological Inc., catalog number 10041-H08H), sequence (Q07011 24-186): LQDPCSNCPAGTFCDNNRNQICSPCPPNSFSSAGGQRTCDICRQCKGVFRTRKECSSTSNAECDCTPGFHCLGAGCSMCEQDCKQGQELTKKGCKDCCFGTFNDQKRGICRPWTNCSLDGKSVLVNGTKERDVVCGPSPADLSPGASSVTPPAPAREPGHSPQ

[2] = target: 4-1BB on GS-H2/4-1BB cells (purchased from GenScript) (UniProt Q07011 24-255); test: FACS binding; Fig. 8C, GS-H2/4-1BB cells
4-1BB on GS-H2/4-1BB cells (purchased from GenScript), sequence (Q07011 24-255): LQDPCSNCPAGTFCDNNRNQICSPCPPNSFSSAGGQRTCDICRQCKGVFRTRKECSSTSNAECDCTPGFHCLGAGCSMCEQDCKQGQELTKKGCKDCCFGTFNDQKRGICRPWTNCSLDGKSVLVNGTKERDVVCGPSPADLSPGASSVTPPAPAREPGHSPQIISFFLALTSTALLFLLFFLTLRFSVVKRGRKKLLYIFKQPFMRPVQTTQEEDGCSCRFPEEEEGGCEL

[3] = target: recombinant human PD-L1 (Sino Biological Inc., catalog number 100 84-H08H) (human, UniProt Q9NZQ7 19-239); test: ELISA; Fig. 8A
recombinant human PD-L1 (Sino Biological Inc., catalog number 100 84-H08H), sequence (Q9NZQ7 19-239): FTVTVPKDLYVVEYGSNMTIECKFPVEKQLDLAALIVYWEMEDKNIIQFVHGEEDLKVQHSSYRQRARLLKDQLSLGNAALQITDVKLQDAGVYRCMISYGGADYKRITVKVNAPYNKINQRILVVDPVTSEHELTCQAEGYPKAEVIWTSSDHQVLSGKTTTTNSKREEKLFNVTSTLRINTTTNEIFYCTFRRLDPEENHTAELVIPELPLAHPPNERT

[4] = target: T1, human PD-L1-Fc (ACROBiosystems, catalog number PD1-H5258) (human, UniProt Q9NZQ7 19-238); test: competition ELISA; blocking PD-L1/CD80
T1 sequence (Q9NZQ7 19-238): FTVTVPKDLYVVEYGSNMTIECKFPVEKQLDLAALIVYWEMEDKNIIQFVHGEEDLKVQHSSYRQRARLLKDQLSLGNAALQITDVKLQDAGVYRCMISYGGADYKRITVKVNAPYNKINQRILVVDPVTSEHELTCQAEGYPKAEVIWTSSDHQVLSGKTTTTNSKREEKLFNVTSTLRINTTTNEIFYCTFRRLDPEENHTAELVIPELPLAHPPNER

[5] = target: T1, human PD-L1-Fc (ACROBiosystems, catalog …); test: competition ELISA; blocking PD-L1/PD-1

Binder | EC50 [1] | EC50 [2] | EC50 [3] | EC50 [4] | EC50 [5]
B1 | 0.045 nM | 1.28 nM |  |  | 
B2 |  |  | 0.102 nM | 0.656 nM | 0.884 nM
B3 | 4.02 nM | 0.396 nM | 0.345 nM | 1.72 nM | 4.86 nM
